Assay results as given in article PMC13017536 (Nature, 2026).

Target: T1, His-tagged LetA (N-terminal 6×His2xQH-TEV-tagged LetA) (E. coli, UniProt P0AD03 1-427)
T1 sequence (looked up): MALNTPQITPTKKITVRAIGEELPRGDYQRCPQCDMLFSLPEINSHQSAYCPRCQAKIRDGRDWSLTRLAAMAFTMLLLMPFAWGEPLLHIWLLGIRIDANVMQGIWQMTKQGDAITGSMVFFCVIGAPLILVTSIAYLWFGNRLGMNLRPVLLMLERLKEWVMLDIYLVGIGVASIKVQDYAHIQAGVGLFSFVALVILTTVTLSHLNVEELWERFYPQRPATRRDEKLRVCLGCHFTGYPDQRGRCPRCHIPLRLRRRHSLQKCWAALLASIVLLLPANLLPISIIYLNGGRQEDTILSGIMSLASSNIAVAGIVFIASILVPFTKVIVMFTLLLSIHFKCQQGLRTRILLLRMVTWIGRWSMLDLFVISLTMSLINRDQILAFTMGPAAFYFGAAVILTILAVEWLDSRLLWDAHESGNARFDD
Test: cryo-EM structure

B1: LetB (lipophilic envelope-spanning tunnel B), untagged (natural protein, E. coli, UniProt P76272 1-877, looked up)
chain: MSQETPASTTEAQIKNKRRISPFWLLPFIALMIASWLIWDSYQDRGNTVTIDFMSADGIVPGRTPVRYQGVEVGTVQDISLSDDLRKIEVKVSIKSDMKDALREETQFWLVTPKASLAGVSGLDALVGGNYIGMMPGKGKEQDHFVALDTQPKYRLDNGDLMIHLQAPDLGSLNSGSLVYFRKIPVGKVYDYAINPNKQGVVIDVLIERRFTDLVKKGSRFWNVSGVDANVSISGAKVKLESLAALVNGAIAFDSPEESKPAEAEDTFGLYEDLAHSQRGVIIKLELPSGAGLTADSTPLMYQGLEVGQLTKLDLNPGGKVTGEMTVDPSVVTLLRENTRIELRNPKLSLSDANLSALLTGKTFELVPGDGEPRKEFVVVPGEKALLHEPDVLTLTLTAPESYGIDAGQPLILHGVQVGQVIDRKLTSKGVTFTVAIEPQHRELVKGDSKFVVNSRVDVKVGLDGVEFLGASASEWINGGIRILPGDKGEMKASYPLYANLEKALENSLSDLPTTTVSLSAETLPDVQAGSVVLYRKFEVGEVITVRPRANAFDIDLHIKPEYRNLLTSNSVFWAEGGAKVQLNGSGLTVQASPLSRALKGAISFDNLSGASASQRKGDKRILYASETAARAVGGQITLHAFDAGKLAVGMPIRYLGIDIGQIQTLDLITARNEVQAKAVLYPEYVQTFARGGTRFSVVTPQISAAGVEHLDTILQPYINVEPGRGNPRRDFELQEATITDSRYLDGLSIIVEAPEAGSLGIGTPVLFRGLEVGTVTGMTLGTLSDRVMIAMRISKRYQHLVRNNSVFWLASGYSLDFGLTGGVVKTGTFNQFIRGGIAFATPPGTPLAPKAQEGKHFLLQESEPKEWREWGTALPK
  stoichiometry N: 6 LetB per LetA
